Experimental data from PMC4514675, “Novel Apo E-Derived ABCA1 Agonist Peptide (CS-6253) Promotes Reverse Cholesterol Transport and Induces Formation of preβ-1 HDL In Vitro” (PLoS ONE, 2015).
“And” between values parts separate entries of the source, which are not always exact repeats. Equal values may be shown once. Read-outs that look alike come from different tables or passages of the source.

Key:
[1] = molecular target: ABCA1 (Homo sapiens, UniProt O95477); experiment: ABCA1-mediated cholesterol efflux from BHK-ABCA1 cells after pre-incubation of acceptor in human plasma; type: cell-based; design: expressed in transfected cells; host or cells: BHK cells, stably transfected, induced with 10 nM mifepristone (gift of J. F. Oram)
Sequence of ABCA1 (O95477 whole entry): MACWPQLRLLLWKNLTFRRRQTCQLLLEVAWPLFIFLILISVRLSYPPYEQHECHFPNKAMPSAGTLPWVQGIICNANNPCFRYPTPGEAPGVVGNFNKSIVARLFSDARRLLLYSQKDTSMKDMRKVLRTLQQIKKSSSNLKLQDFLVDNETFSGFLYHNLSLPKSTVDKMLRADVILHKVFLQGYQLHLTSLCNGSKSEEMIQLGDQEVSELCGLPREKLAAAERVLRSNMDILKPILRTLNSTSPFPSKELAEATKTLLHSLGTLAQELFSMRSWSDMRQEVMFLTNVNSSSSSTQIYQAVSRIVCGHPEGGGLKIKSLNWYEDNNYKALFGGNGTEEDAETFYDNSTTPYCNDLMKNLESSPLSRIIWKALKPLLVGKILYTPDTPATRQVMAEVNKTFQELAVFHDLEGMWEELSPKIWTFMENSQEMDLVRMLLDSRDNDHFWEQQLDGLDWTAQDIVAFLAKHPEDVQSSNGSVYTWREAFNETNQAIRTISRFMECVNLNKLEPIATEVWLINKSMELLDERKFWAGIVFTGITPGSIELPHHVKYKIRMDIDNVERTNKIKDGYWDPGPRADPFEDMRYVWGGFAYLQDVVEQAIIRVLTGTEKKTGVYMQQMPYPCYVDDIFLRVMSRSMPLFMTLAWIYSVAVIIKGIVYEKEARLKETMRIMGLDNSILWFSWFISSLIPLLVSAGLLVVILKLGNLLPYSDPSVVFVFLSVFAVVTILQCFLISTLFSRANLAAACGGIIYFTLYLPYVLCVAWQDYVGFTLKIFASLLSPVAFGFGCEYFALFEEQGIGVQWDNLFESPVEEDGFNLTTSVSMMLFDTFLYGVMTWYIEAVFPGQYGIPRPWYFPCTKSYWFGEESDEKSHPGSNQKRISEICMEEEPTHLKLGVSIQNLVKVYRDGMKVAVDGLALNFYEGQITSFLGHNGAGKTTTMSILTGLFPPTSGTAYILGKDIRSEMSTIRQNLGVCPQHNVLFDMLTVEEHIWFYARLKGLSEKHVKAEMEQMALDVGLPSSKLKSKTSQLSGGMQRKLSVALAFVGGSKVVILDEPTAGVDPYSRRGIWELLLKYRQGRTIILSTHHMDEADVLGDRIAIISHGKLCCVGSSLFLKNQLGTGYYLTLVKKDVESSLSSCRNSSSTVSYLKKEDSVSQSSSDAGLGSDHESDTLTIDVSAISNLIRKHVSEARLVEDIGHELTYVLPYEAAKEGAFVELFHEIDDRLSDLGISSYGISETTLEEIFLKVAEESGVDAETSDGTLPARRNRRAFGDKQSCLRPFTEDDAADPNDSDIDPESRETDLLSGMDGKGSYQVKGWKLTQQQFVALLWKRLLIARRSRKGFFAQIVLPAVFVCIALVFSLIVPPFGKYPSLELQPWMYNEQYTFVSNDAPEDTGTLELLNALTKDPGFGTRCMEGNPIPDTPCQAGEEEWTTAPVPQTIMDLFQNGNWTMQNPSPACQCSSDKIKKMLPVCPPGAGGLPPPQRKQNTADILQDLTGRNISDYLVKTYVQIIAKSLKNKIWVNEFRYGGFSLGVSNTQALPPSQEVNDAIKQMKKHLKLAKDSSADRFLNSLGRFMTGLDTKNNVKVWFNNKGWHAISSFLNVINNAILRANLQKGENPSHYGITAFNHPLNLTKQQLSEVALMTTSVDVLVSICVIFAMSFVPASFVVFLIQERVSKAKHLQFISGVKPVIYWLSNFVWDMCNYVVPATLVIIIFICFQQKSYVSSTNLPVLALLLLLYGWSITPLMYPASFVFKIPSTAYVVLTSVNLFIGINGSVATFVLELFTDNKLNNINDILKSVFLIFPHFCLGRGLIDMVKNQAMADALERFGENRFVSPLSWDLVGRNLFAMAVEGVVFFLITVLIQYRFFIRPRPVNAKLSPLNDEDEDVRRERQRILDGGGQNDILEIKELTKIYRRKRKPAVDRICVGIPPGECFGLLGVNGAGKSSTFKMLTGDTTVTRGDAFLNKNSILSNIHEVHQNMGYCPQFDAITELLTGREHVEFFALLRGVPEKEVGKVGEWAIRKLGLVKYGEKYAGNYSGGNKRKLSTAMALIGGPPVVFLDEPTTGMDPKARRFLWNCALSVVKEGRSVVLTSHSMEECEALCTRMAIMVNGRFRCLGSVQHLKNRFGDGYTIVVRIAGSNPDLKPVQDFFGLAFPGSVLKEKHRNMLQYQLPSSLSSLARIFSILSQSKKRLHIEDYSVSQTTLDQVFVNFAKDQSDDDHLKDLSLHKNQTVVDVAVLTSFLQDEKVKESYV
Description: We investigated cholesterol efflux from BHK cells after adding lipid free CS-6253 to media cell culture or to human EDTA-plasma which had been stored at -80°C. BHK overexpressing human ABCA1 were labeled with 2 μCi/ml ^3H-free cholesterol (Perkin Elmer, Norwalk, Connecticut) for 24 h. Afterward, BHK-ABCA1 were stimulated with 10 nmol/l mifepristone for 18–20 h (13). Cells were incubated with various doses of acceptor in media for 4 h at 37°C. Alternatively, plasma samples were first pre-incubated for 5 min at 37°C in plasma at mole ratios (10:1 or 1:1 relative to plasma apo A-I). To obtain the HDL fraction, apoB lipoproteins were precipitated from plasma by polyethylene glycol (PEG). Also, increased doses of lipid free CS-6253 and nHDL-CS-6253 were tested for cholesterol efflux after incubation with human plasma for optimum 1h at 37°C. ^3[H]-cholesterol loaded BHK cells expressing ABCA1 were incubated with 2.8% apoB depleted plasma samples [19] for 4 h for the efflux assays. Lipid free apo A-I and nHDL-apo A-I were used as control, nHDL-CS-6253 and nHDL-apo A-I were generated after incubation with BHK cells expressing ABCA1. Direct comparisons with peptide ATI-5261 are provided using identical protocols (12).
Fig 7 Dose dependent effects of pre-incubation of plasma with lipid free CS-6253, or nHDL-CS-6253 on ABCA1 cholesterol efflux. A. Increased doses of lipid free CS-6253 or apo A-I were added to normolipidemic plasma and incubated for 1h at 37°C. A volume of 2.8% of HDL fractions isolated by PEG was used for the measurements of cholesterol efflux from BHK cells expressing ABCA1 and mock cells. […] B. nHDL-CS-6253 and nHDL-apo A-I were generated as indicated above. nHDL particles were incubated in plasma for 1h at 37°C, and specific HDL fractions isolated by PEG were subjected to cholesterol efflux in ^3[H]-radiolabelled BHK cells. […] C. Mobilization of cholesterol efflux of increasing concentrations of peptide: plasma apo A-I molar ratios: (1:0) (closed circles), (1:10) (upright closed triangles), and (1:1) (closed squares). (C inset). The double reciprocal-plot was used to calculate the apparent appKm of the efflux activity in peptide: plasma with indicated ratios. Kinetics values are as follows, molar ratio of plasma apo A-I: CS-6253 (1:0); appKm (28±0.07 μM). Molar ratio of plasma apo A-I: CS-6253 (1:1); appKm (4.17±0.47 μM). Molar ratio of plasma apo A-I: CS-6253 (1:10); appKm (0.71±0.46 μM). D. Lipid free CS-6253 was incubated with normolipidemic plasma, using peptide: apo A-I mole ratio of (1:1) for 5 min at 37°C versus plasma alone. Isolated HDL fractions by PEG were separated by 2D-PAGGE and HDL subpopulations were detected by apo A-I Western blot. Molecular size markers are shown. In all experiments, efflux of ^3[H]cholesterol is shown as means ± SD of triplicate experiments.

[2] = test system: BHK-ABCA1 plasma membrane microdomains; experiment: Cholesterol and phospholipid desorption from raft and non-raft domains of BHK-ABCA1 cells; type: cell-based, hamster; conditions: 45 min
Description: Lipid labeling was performed as described previously with minor modifications. Briefly, BHK-cells were labeled with either 5 μCi/ml ^3[H] choline (Perkin-Elmer) for 48 h or 3 μCi/ml ^3[H] cholesterol (Perkin-Elmer) for 24 h, and then stimulated as described above. […] For each fraction, lipids were extracted by Folch and ^3[H]choline-labeled PtdCho, and SM were separated by TLC in the solvent system chloroform-methanol-water (65:35:4; v/v/v), and counted.
Supplementary file pone.0131997.s008.tif: S7 Fig CS-6253 desorbs phospholipids from raft and nonraft domains. […] After lipid extraction, ^3[H]cholesterol in each fraction was assessed for radioactivity. Radioactivity appearing in fractions corresponding to raft (1–5) and nonraft (6–10) material was pooled, and desorption of ^3[H]cholesterol and ^3[H]choline, from raft versus nonraft in the presence of apo A-I or CS-6253 was expressed as a percentage of control (100%, in the absence of acceptor) (S4 to S7 inset). […]
Sucrose density gradient fractionation was performed by ultracentrifugation (1,2). […] Ten fractions of 1ml were collected from top to bottom and analyzed for radioactivity, and lipid content ^3[H]-FC and ^3[H]-choline. […]

Km ([1]; acceptor in human plasma 1 h 37°C, 2.8% HDL fraction, 4 h, BHK-ABCA1, Fig 7A/7B, read-out: Km, cholesterol efflux, plasma (Fig 7)): 0.03 ± 0.008 µM
Vmax, cholesterol efflux, plasma (Fig 7) ([1]; acceptor in human plasma 1 h 37°C, 2.8% HDL fraction, BHK-ABCA1, Fig 7A/7B): 9.26±0.29 % efflux/4h
Vmax, cholesterol efflux, plasma (Table 1) ([1]; efflux condition plasma, 4 h, BHK-ABCA1, Table 1, mean ± SD): 8.81±0.33 % efflux/4h
Km ([1]; efflux condition plasma, 4 h, BHK-ABCA1, Table 1, mean ± SD, read-out: Km, cholesterol efflux, plasma (Table 1)): 0.02 ± 0.0091 µM
appKm, HDL specific cholesterol efflux, plasma apo A-I alone ([1]; no peptide, 5 min, 37°C, efflux 4 h, Lineweaver-Burk, listed as plasma apo A-I): 28 ± 0.072 µM and 28 ± 0.07 µM
Substance: apolipoprotein A-I [apo A-I]
cholesterol desorption from rafts and non-rafts [2]: 25%
